Patent publication US20180264123A1 (UNIVERSITY OF MIYAZAKI, published 2018)
Bridge positions count the residues as written; N and C are the ends. Xyl‑4‑branched CH3O‑PEG (40k)‑CH2 = xylose skeleton-containing 4-branched CH3O-PEG (40k)-CH2 (alkylamine-linked PEG, 40k)

B1: CH3O-PEG (20k)-(CH2)2-CH2-^αNH-(h.AM (1-52)) (peptide)
peptide: {CH3O‑PEG (20k)‑(CH2)2‑CH2‑}-YRQSMNNFQGLRSFGCRFGTCTVQKLAHQIYQFTDKDKDNVAPRSKISPQGY-NH2
modifications: disulfide 16-21
B2: GL-2-branched CH3O-PEG (80k)-CH2-^αNH-(h.AM (1-52)) (peptide)
peptide: {GL‑2‑branched CH3O‑PEG (80k)‑CH2‑}-YRQSMNNFQGLRSFGCRFGTCTVQKLAHQIYQFTDKDKDNVAPRSKISPQGY-NH2
modifications: disulfide 16-21
B3: Xyl-4-branched CH3O-PEG (40k)-CH2-^αNH-(h.AM (1-52)) (peptide)
peptide: {Xyl‑4‑branched CH3O‑PEG (40k)‑CH2}-YRQSMNNFQGLRSFGCRFGTCTVQKLAHQIYQFTDKDKDNVAPRSKISPQGY-NH2
modifications: disulfide 16-21
B4: GL-3-branched CH3O-PEG (50k)-CH2-^αNH-(h.AM (1-52)) (peptide)
peptide: {GL‑3‑branched CH3O‑PEG (50k)‑CH2‑}-YRQSMNNFQGLRSFGCRFGTCTVQKLAHQIYQFTDKDKDNVAPRSKISPQGY-NH2
modifications: disulfide 16-21
B5: GL-2-branched CH3O-PEG (20k)-CO-^αNH-(h.AM (1-52)) (peptide)
peptide: {GL‑2‑branched CH3O‑PEG (20k)‑CO‑}-YRQSMNNFQGLRSFGCRFGTCTVQKLAHQIYQFTDKDKDNVAPRSKISPQGY-NH2
modifications: disulfide 16-21
B6: GL-4-branched CH3O-PEG (40k)-CO-^αNH-(h.AM (1-52)) (peptide)
peptide: {GL‑4‑branched CH3O‑PEG (40k)‑CO‑}-YRQSMNNFQGLRSFGCRFGTCTVQKLAHQIYQFTDKDKDNVAPRSKISPQGY-NH2
modifications: disulfide 16-21
B7: GL-2-branched CH3O-PEG (40k)-CO-^αNH-(h.AM (1-52)) (peptide)
peptide: {GL‑2‑branched CH3O‑PEG (40k)‑CO‑}-YRQSMNNFQGLRSFGCRFGTCTVQKLAHQIYQFTDKDKDNVAPRSKISPQGY-NH2
modifications: disulfide 16-21
B8: CH3O-PEG (30k)-(CH2)2-CH2-^αNH-(h.AM (1-52)) (peptide)
peptide: {CH3O‑PEG (30k)‑(CH2)2‑CH2‑}-YRQSMNNFQGLRSFGCRFGTCTVQKLAHQIYQFTDKDKDNVAPRSKISPQGY-NH2
modifications: disulfide 16-21
B9: CH3O-PEG (10k)-(CH2)2-CH2-^αNH-(h.AM (1-52)) (peptide)
peptide: {CH3O‑PEG (10k)‑(CH2)2‑CH2‑}-YRQSMNNFQGLRSFGCRFGTCTVQKLAHQIYQFTDKDKDNVAPRSKISPQGY-NH2
modifications: disulfide 16-21
B10: GL-2-branched CH3O-PEG (40k)-CH2-^αNH-(h.AM (1-52)) (peptide)
peptide: {GL‑2‑branched CH3O‑PEG (40k)‑CH2‑}-YRQSMNNFQGLRSFGCRFGTCTVQKLAHQIYQFTDKDKDNVAPRSKISPQGY-NH2
modifications: disulfide 16-21
B11: GL-4-branched CH3O-PEG (40k)-CH2-^αNH-(h.AM (1-52)) (peptide)
peptide: {GL‑4‑branched CH3O‑PEG (40k)‑CH2‑}-YRQSMNNFQGLRSFGCRFGTCTVQKLAHQIYQFTDKDKDNVAPRSKISPQGY-NH2
modifications: disulfide 16-21
B12: CH3O-PEG (5k)-(CH2)5-CO-^αNH-(h.AM (1-52)) (peptide)
peptide: {CH3O‑PEG (5k)‑(CH2)5‑CO‑}-YRQSMNNFQGLRSFGCRFGTCTVQKLAHQIYQFTDKDKDNVAPRSKISPQGY-NH2
modifications: disulfide 16-21
B13: Lys-2-branched CH3O-PEG (40k)-CH2-^αNH-(h.AM (1-52)) (peptide)
peptide: YRQSMNNFQGLRSFGCRFGTCTVQKLAHQIYQFTDKDKDNVAPRSKISPQGY
modifications: N-terminal α-amino group alkylamine-linked to lysine skeleton-containing 2-branched CH3O-PEG (40k)-CH2-; Cys16-Cys21 disulfide; C-terminal amide
B14: CH3O-PEG (20k)-(CH2)5-CO-^αNH-(h.AM (1-52)) (peptide)
peptide: {CH3O‑PEG (20k)‑(CH2)5‑CO‑}-YRQSMNNFQGLRSFGCRFGTCTVQKLAHQIYQFTDKDKDNVAPRSKISPQGY-NH2
modifications: disulfide 16-21
B15: CH3O-PEG (20k)-CO-^αNH-(h.AM (1-52)) (peptide)
peptide: {CH3O‑PEG (20k)‑CO‑}-YRQSMNNFQGLRSFGCRFGTCTVQKLAHQIYQFTDKDKDNVAPRSKISPQGY-NH2
modifications: disulfide 16-21
B16: CH3O-PEG (40k)-(CH2)2-CH2-^αNH-(h.AM (1-52)) (peptide)
peptide: {CH3O‑PEG (40k)‑(CH2)2‑CH2‑}-YRQSMNNFQGLRSFGCRFGTCTVQKLAHQIYQFTDKDKDNVAPRSKISPQGY-NH2
modifications: disulfide 16-21
B17: GL-2-branched CH3O-PEG (60k)-CH2-^αNH-(h.AM (1-52)) (peptide)
peptide: {GL‑2‑branched CH3O‑PEG (60k)‑CH2‑}-YRQSMNNFQGLRSFGCRFGTCTVQKLAHQIYQFTDKDKDNVAPRSKISPQGY-NH2
modifications: disulfide 16-21

target: AM receptor; experiment: cell-based or functional assay

| Intracellular cAMP concentration-increasing effect (%) vs h.AM (1-52); 10^-8 mol/L, HEK293 cells [%] | Binder |
| --- | --- |
| 100 | B1 |
| 94 | B2 |
| 81 | B3 |
| 80 | B4 |
| 99 | B5 |
| 80 | {CH3O‑PEG (5k)‑(CH2)2‑CH2‑}-LRSFGCRFGTCTVQKLAHQIYQFTDKDKDNVAPRSKISPQGY-NH2 (disulfide 6-11) [CH3O-PEG (5k)-(CH2)2-CH2-^αNH-(h.AM (11-52))] |
| 77 | {GL‑2‑branched CH3O‑PEG (40k)‑CH2‑}-NNFQGLRSFGCRFGTCTVQKLAHQIYQFTDKDKDNVAPRSKISPQGY-NH2 (disulfide 11-16) [GL-2-branched CH3O-PEG (40k)-CH2-^αNH-(h.AM (6-52))] |
| 85 | B6 |
| 104 | {GL‑2‑branched CH3O‑PEG (20k)‑CO‑}-LRSFGCRFGTCTVQKLAHQIYQFTDKDKDNVAPRSKISPQGY-NH2 (disulfide 6-11) [GL-2-branched CH3O-PEG (20k)-CO-^αNH-(h.AM (11-52))] |
| 87 | B7 |
| 100 | B8 |
| 61 | {GL‑2‑branched CH3O‑PEG (40k)‑CO‑}-CRFGTCTVQKLAHQIYQFTDKDKDNVAPRSKISPQGY-NH2 (disulfide 1-6) [GL-2-branched CH3O-PEG (40k)-CO-^αNH-(h.AM (16-52))] |
| 101 | B9 |
| 83 | {GL‑4‑branched CH3O‑PEG (40k)‑CO‑}-NNFQGLRSFGCRFGTCTVQKLAHQIYQFTDKDKDNVAPRSKISPQGY-NH2 (disulfide 11-16) [GL-4-branched CH3O-PEG (40k)-CO-^αNH-(h.AM (6-52))] |
| 99 | {GL‑2‑branched CH3O‑PEG (20k)‑CO‑}-NNFQGLRSFGCRFGTCTVQKLAHQIYQFTDKDKDNVAPRSKISPQGY-NH2 (disulfide 11-16) [GL-2-branched CH3O-PEG (20k)-CO-^αNH-(h.AM (6-52))] |
| 97 | {CH3O‑PEG (20k)‑(CH2)2‑CH2‑}-CRFGTCTVQKLAHQIYQFTDKDKDNVAPRSKISPQGY-NH2 (disulfide 1-6) [CH3O-PEG (20k)-(CH2)2-CH2-^αNH-(h.AM (16-52))] |
| 96 | B10 |
| 96 | {GL‑2‑branched CH3O‑PEG (20k)‑CO‑}-CRFGTCTVQKLAHQIYQFTDKDKDNVAPRSKISPQGY-NH2 (disulfide 1-6) [GL-2-branched CH3O-PEG (20k)-CO-^αNH-(h.AM (16-52))] |
| 95 | B11 |
| 81 | B12 |
| 102 | B13 |
| 67 | B14 |
| 100 | B15 |
| 101 | B16 |
| 99 | B17 |
| 90 | {CH3O‑PEG (5k)‑(CH2)2‑CH2‑}-NNFQGLRSFGCRFGTCTVQKLAHQIYQFTDKDKDNVAPRSKISPQGY-NH2 (disulfide 11-16) [CH3O-PEG (5k)-(CH2)2-CH2-^αNH-(h.AM (6-52))] |
| 97 | {CH3O‑PEG (20k)‑(CH2)2‑CH2‑}-LRSFGCRFGTCTVQKLAHQIYQFTDKDKDNVAPRSKISPQGY-NH2 (disulfide 6-11) [CH3O-PEG (20k)-(CH2)2-CH2-^αNH-(h.AM (11-52))] |
| 39 | {CH3O‑PEG (5k)‑(CH2)2‑CH2‑}-CRFGTCTVQKLAHQIYQFTDKDKDNVAPRSKISPQGY-NH2 (disulfide 1-6) [CH3O-PEG (5k)-(CH2)2-CH2-^αNH-(h.AM (16-52))] |
